Measured values published in WO2023028914A1 (dated 2023).
One block for each binder: values may come before it.

Biological target: T1, human Her3-His recombinant protein (human, UniProt P21860 20-643)
T1 construct: Recombinant His-tagged human Her3; not shown: His tag
Experiment: BLI (Fortebio Octet 96e), antibody loaded on AMC sensor, human Her3-His 100-3.13 nM in solution

T1 sequence (P21860 20-643 limits assumed): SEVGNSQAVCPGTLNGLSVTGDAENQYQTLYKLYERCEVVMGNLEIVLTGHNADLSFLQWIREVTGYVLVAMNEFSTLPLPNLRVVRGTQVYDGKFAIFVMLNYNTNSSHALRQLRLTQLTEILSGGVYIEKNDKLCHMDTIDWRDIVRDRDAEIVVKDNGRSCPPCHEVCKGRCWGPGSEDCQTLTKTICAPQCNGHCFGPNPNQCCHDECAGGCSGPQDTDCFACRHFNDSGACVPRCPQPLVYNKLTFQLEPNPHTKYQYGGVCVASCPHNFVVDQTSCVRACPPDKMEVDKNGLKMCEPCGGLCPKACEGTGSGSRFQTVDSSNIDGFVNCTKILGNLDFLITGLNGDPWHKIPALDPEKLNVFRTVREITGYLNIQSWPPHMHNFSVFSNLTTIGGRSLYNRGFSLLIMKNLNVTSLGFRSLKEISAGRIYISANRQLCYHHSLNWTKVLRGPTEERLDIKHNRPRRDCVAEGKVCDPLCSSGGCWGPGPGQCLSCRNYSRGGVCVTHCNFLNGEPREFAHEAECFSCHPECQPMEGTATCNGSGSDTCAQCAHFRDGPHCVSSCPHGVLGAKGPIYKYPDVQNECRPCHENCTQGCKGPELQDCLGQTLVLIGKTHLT

Kd: 2.43 nM
koff: 0.000357 s⁻¹
kon: 147000 M⁻¹ s⁻¹
B1: monoclonal antibody 2F8 (antibody, V domains shown)
VH: QVQLQQWGAGLLKPSETLSLTCAVYGGSFSGYYWSWIRQPPGKGLEWIGEINHSGSTNYNPSLKSRVTISVETSKNQFSLKLSSVTAADTAVYYCARDKWTWYFDLWGRGTLVTVSS
VL: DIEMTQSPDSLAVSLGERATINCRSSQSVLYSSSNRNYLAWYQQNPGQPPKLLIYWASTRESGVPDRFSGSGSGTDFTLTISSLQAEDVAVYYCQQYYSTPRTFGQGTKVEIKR
notes: also called 2F8-new; parental molecule 2F8

Kd: 2.53 nM
koff: 0.000393 s⁻¹
kon: 156000 M⁻¹ s⁻¹
B2: antibody 3F5 (light chain mutant 2F8-Lm1 combined with heavy chain 2F8-H-new) (antibody, human IgG1, kappa, V domains shown)
VH: B1 VH
VL: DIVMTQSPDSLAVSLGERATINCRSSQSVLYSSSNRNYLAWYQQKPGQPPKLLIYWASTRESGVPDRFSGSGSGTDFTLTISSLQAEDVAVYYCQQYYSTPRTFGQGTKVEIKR
notes: also called 2F8-m1; 3F5 mutant
